From a protein production outcome set (Wang et al. 2014)

Test: label from the status in PepcDB records

| Sequence | protein production |
| --- | --- |
| MQGFTAYLVGFAIVAGFAVALGFIFGIFNQIVAQLNTDPNNPMISQEFVDAINLAQSLGGTGLTLAIAALIVGLAMLLIAVIRSYSGV | failed |
| MQGHHAAARALRRQGRLGEAIARYRAALAATPGAAVLQAEMAECLFAAGQAEAAVKALGQAVRLDPDNATHRGNLAMLLARKGDLAGAIDHARAAVRLAPKDGALRLRLARLLIAAGHPREAEAEALDATRRLPREAASWIALAGARLLDQRPNDAEAPSARALALAPNDAEALSLRTDLLLSLGRLAEAEATARLALKRQPTSLAALVALSKAKTFRPDDPDWPALAALLPSLGERSAEEAVKLHFASAKALEDMGRDDEAFAHYQAGNSLKGRGLPDELPALSAMVDSLERWTPKLRPVGEGDPLPVFIVGMPRSGTTLVEQILDRHRAIHGAGEILLFGERVVANGLGGYSADPQGLDPERLAALGADYRDRLRGLAPRAGRIINKTPGNWLHLGLIAAALPGARIIWCRRDPVDCCLSCFRNLFGQGHAWTTDLGRAGRYYRLQERLTGHWQAVLGDERMTAVDYEALVADPEAEARRLVAHLGLEWDEACLDHTRGGRAVTTLSQVQVRQPITDASVGRGRRFQTHLGPLLTALDGR | failed |
| MQGQNQQQAYDRGITIFSPDGRLYQVEYAREAVKRGTASIGVRTSDGVVLAVDKRIRSPLMERSSVEKIHKADDHIGIASAGHVADARQLIDFARRQAQVNQLRYGEPVGVETLTKEITDYIQQYTQVGGARPFGVALIIGGIVNGEPRLFETDPSGTPYEWKALAVGADRGDIRDYLEEHYDEGMDLDEGVDLALAALASVNDDELSPEGIGVATVDVETETFGQLTDEEKEAHLAEADLLDTGEDADDEAEDEDATEE | failed |
| MQGQWGYVAISFIIGIAIAFSSSVIWLTCCLVLNVFFCLYRTPRKTFFYCMIACLSGAMYTTYVQGQNNPLGDSYEATRGVIHNTPLINGDRLSFQVEDQNKNIVQLSYKMKSALEKKQMRQLHAGVSCVFEGERKEPQIARNFHGFNYRDYLYKQNIHFILDATYISECHKTSLSLVQWILLLRQQAISEVAEMFPEQSGAFMNALVFGDRQQMTFEVEEQYQQFGLVHLLAISGSHIVLLMVIVYFILLRSGVTREVATVCLIFCIPLYMILAGASPSVIRASITGVFMLIAFMCSIRLSSLDALSITAICMLIFDPYLVFNIGFQFSFVGSFALLLSTPLLLESGNGVIRNSIYISFISQLVSTPILLYHFGYFSPYSIFLNILYVPFLSLVVLSCSIVILICIPVIPFLAKRLANVLSIGLNLSNDFLSYCENLPFTRLNFGQTSILLVALYCVSIISILMVWERRMAKGILFISAGVFLFISTCHYVYPYFRESGSVTFLDVGQGDAILIRLPYDQEIYLIDTGGTILPNKEEWQRKKHEFSVGNDILIPYLQKEGIKKIDKLIITHGDADHIGAAQQLLSNITVKEVVFGRKEQDAELEKIVKKQALEKKVKIREVREGESWSINGAEFFVLAPTGKESSENNASIVMLAKLGGLTWLFTGDLEEEGEKFLVATYPELRADVLKVAHHGSNTSSTTPFLSVVQPNIAVISVGERNRYGHPHKDVIERFEKRGIEIWRTDKQGAISYVFKGENGTFRSKITYDETHNR | failed |
| MQHRQLWYRGGLGLALALVVVGYRGSRTVIRAVPRAQLSVDQKMPSTSSVFSASKLTLQDEANNSAPQVSPEAQESSGPDKQSDLTSGSSTSSSGISSGNSSGSTILENAKNNQTSETATTKAAEMVNGTVKMTLDTNGTLHLSGGSFGASLGSATGSWIVKTLTANGYQPTQVSKIVIDGKITATTMTNYSYLFANLPNVTAIDGLANLNLTGVTDISWLFLNCSQLGALDLNSWDVSSVIRMEGTFQNCAKLVTLNVANWNTDSLQYLIDTFNGDSSLTSLPVGKWNTSKVATMMRTFTDCSSLTSLDIANWDTRVVTNMSAIFRGMSKVKSLPIDKWQTGRVVNMQLVFSGDTSLESINVANWDTSRATALDGTFAKLPNIKSLPLDNWNTSNVQTIRSTFYGDTNLTQLPIDNWNVGKVFDFNSTFSGCASLTTAPVANWNTQSATNLGYTFEGMTSLTSLPVDNWQTGTVTNMAGTFSGVSQLKSLPISKWNTKNVQNMAGTFSKMSSVTALPVDNWQTGNVTTMRGIFTKVSQVKNLPVGKWNTAKVVDMGQVFYGNPQLTSLPIENWNTSSATDFSQLFAEDSGLQTLSLGAWNTTKVTNFESVFQNTSLDKLDLTGWNTNSAQTYTNAFSSKLPPKRLLLGPSFNFFKSESWHLPNPSSEAPYIGKWRSLNNKKVYTSADLMTKYDGKTIVGEFEWATGNTITVKYVDAAGKYLAPDTKISGATGDAYHIKPIEIQGYVPDQPDGVQGNFTDKDETITLMYNPGGLMFVSAPQTINFGQNPITGKSENYGASYDTGLVIQDGRSIGSTWSLNATLSASGFTSKQSGRPLAAVLSYKDQQTGGGSILTPGVARLIVNNHQTVSNQGVNILGQKTALGALSLQVPTDRALTDTYQATVTWTLNQGVPNR | failed |
| MQIGLEAGLTNQLIDEIDQQPGHLPLLEFALTQLWSKQQNRLLTHQAYQEIGGVEEALANHAEAVYAQLTEADRQRAQQIFIQLVRLGDDTEATRRLTTREEVRLENWDLVTRLASSRLVVTNRNESTAEETVEIVHEALIRSWGRLEQWLIVDGDFLRWREQLRLAIRLWENSGHDQGVLLRGKALIDAQEWQLQRAQELNTNEIRFINKSGELRELEVKQQQRIRKIGISSLVTGLILALGLAGVAWLQGQKARMSETKAISSSAESFLNANLEFDGLIASIRAGRRIKGTDGIDANTRTQITETLQQSINFVREKNRLAEHDGMLESVSFSPDSKFIATASRDKTVKIWSLDGKKQLVVLREEKGEGFNSVAFSPDGTLMATGSWDNTAKIWSREGKRLHTLDGHKEAVLEVAFSPDSQLLATASWDNTVKLWSREGKLLHTLEGHKDKVNSITFSPDGQLIATVGWDNTMKLWNLDGKELRTFRGHQDMIWSVSFSPDGKQIATASGDRTVKLWSLDGKELQTLRGHQNGVNSVTFSPDGKLIATASGDRTVKLWNSKGQELETLYGHTDAVNSVAFSPDGTSIATAGNDKTAKIWKLNSPNSIIVRGHEDEVFDLVFSPNGKYIATASWDKTAKLWSIVGDKLQELRTFNGHQGRVNKLSFSPDGKYIATTSWDKTAKLWNLDGTLQKTLTGHKDTVWSVNFSPDGQLIATASEDKTVKLWNRDGELLKTLPRQSSVVNSAVFSPDGKLIATAGWDKTVKIWSIDGRLQKTLTGHTSGINSVTFSPDGKLIASASWDNTVKIWNLDGKELRTLRGHKNVVHNVTFSPDGKLIATASGDNTVKIWNINGQELRTLRGYKDAVWSLRFSLDGKTLATGSRYDIVVWHLYLDDLDQLLVRGCDWARDYLQNNPNVNPDEKSLCDGIRPIAQQ | failed |
| MQINLSDLHLLRPLWLLLIIPGALLPWLWQRRHDLLARLRGTIAPHLLTHLLVTPQDSQRLRPVHLLSALLVLGALAAAGPTWEQDRPDFLHNRAPLIIALDLSPSMNASDLPPSRLEAAKHKLQQLVQQRRGARTGLIAYAGSAHLVLPASDDPALLDSFIQALGSDLIQRPGKDVLGVIRQAQRLLQAEHSPGSLLLISDGADTSQLAAIKQQLAGSPLQVLILAAGSSDGGIIRDASGQPLTDSDGRPQLGRFDSAALKQLAAASDAPLGSLTLNDDDLDWVQLHAQQHFTAASAPDRQLQWKDAGYWLCWPLLLLAFCCVRRGWSLNWLGALLLGLGLSLQAPTARANTLADAFFSADQQGRWAFEHGHYPAAAALFTDPYWKGIAAYKAADFDLALASFARLDSAAAYFYLGNIHVRRFKFDEAIAAYQQALKLQPRFAEASANLALAQALKKDTESAQQNAPEVKPDAIKFDKPAGKGQNKKVETQEAASDELWLQNLSTSPAAFLRQKFSLQDLDNTTPQVTP | failed |
| MQIVGSVALMLWGIRLVRTGFIRAFGGSLRHYLGLAISGRLTSFGVGLAITVFLQSSTATALIISSFASKGLVQTPAALAVMLGADVGTSISAQILSFNLSWLAYAAILIGFFLHGRGGRFATRQIGRAIVGLGMVLLALSLIRMSSQPLREADGLAYVLSALEGEVLLTLFLMAVLTWLVHSSLAVVLLTASLASAGIVPTGTGLVMILGANIGGTIPPIIATLSTGPQSQHAALGNAGFKLLASLLVLPFLPWVGERLQSFGGDAQVLVNFHLTFNLLVATLFLPWVQTAAALLARVFPDTGAGAVEPVTKYLDKELITSPALALTSATRELYRVNERIEDSLALLSGGIAARDQVDVQGAQENRARVAAMLEEFKFYLTDITREEISESDSAKAMNLLLIATNLGHVSELVTNAVELTASTSHEQIRFSEAGTAELLEMLELIHQGIRLALSAALLGDAKVRKTLQKGRKELERMVDESRQAHFSRLAEGTLSSISTTSLHNELLRDFSRIYYHIYTASKIGGRDSSVMIRG | failed |
| MQKEKAPIGLYFLLIAVMASWGFNVTMTKVLVSYFPTVTMTSFRIFTAAITVIIILFITKKLRLPTKREFGLIFLASIFNIVIHHFFLSNGLKLTTGTNAGLILGSAPIVVAIFSVVFLRERIGAWRALGFLAGIFGVSLVVLSNGTGISGISLGDIDIFIAMASQAFSFIIIKKLAGSMDTGLMTGYMLFLGSVMLFALSRFMEPGGVSELVAVHSWKLWLLFVVSAVVATAFGNFVYNYAVGKIGPSRSAIFMNFNPLFSLIGALLFLGEAIKIPQLVGFVFIIIGVLLGSGALMDLIYERKKTKVRDPEKLLEKEV | failed |
| MQKFIRDFTLPAAFAGFVTFLIGISVSSVLVIQAAQILGANTPQITSWFWALGIGIGLSGLILSWKFKYPVATSWSTAGLALIIATGSGYSLHEAIGAFLLCGLLTALLGFFGVFQKALAYIPQSLTSAMLAGVLLKFGIAIFGNMQDHWQFIISLLAVYIVSKRLWPRYCIVITVIAGVMICPFFMEFHLPTLHWELAKPEWITPHFTGSAILGLALPLFVINMASQYLPGIAMIKSYGYNPNVNQLIGWTGATQTLLAPFGCYTVNIAAISAAVSLDDQVHPDPAKRYIAGISCGFFYILMGLFAATLTSLLMSFPSLFIVALAGIALFGTISHNIAIAFQEPTDREAALLTFLCSASGIQFFGIGSAFWGLIVGVIVSMVLKTKFKKS | failed |
| MQKGKDLTLRLMIVDDSVESAETIVTALRNGGIAVRPSRPQSQEELASMLSGQIDLAILGQAQQIPMSALQTQIAGSGKDIPILLLAERIEENALVEAASHGVRAIALRHRPAHLLALVRSEWDDLQARRGLRRIEAQMRETERRCDALIASSRDPIAYVHEGMHIRANDAYLEMFGFESFDDVEGISLLDMIAAQYVDDFKQLLKAMSKGEPPPAQYKLDARRVEGDTFPATMEFATATYEGEPCIQVVFRRREEFDPELAREVEDLRQRDQVTGLLNRPTFMVALEQAVAQAGRSEGQSGFLLIEPDHYARILPEFGLDSADALIAALAAHVASVLDDSVLAARFGEHSFALLLNGNYARTHALAETVRNAFAQHVFSVGTRSATVTVSIGGVQIGEKIASIGQVLNRGTEAVRTTAELGGNAVSIYDPAAADRAEEERIERWVEQLREALVGDGFLLHYQPVLNLQGEPLELYQAFLRLERNGEMMSPNAFMAIAEEHDLVTEIDRWVVARAIRQLGERQRAGHKTHLLVRIGPNSFSDPQMIDTIREQLAVYGVPGERLWLQTPESKVFTHLRNAQQFLAAVSAMDCKVGLEQFGSGLDSFQLLAHFHPAFLKLDRGITGDIASARDSQEKIREITSRAQPAGILTMAEFVADAQSMSSFFSAGVDYVQGDFVAPTGPLMNYEFG | failed |
